Experimental data as given in US20140235820A1, “METHODS AND COMPOSITIONS FOR MODULATING THE Wnt PATHWAY” (Genentech, Inc., priority 2010, published 2014).
Positions of bridges follow the written chain, without caps; N, C: chain ends.

Columns and labels:
[1] = molecular target: T1, human LRP6 construct E1E2 (amino acids A20-E631) (human, UniProt O75581 20-631, biotinylated for biolayer interferometry); test: competition phage ELISA
T1 construct: range 20-631; also called LRP6 E1E2
T1 sequence (looked up): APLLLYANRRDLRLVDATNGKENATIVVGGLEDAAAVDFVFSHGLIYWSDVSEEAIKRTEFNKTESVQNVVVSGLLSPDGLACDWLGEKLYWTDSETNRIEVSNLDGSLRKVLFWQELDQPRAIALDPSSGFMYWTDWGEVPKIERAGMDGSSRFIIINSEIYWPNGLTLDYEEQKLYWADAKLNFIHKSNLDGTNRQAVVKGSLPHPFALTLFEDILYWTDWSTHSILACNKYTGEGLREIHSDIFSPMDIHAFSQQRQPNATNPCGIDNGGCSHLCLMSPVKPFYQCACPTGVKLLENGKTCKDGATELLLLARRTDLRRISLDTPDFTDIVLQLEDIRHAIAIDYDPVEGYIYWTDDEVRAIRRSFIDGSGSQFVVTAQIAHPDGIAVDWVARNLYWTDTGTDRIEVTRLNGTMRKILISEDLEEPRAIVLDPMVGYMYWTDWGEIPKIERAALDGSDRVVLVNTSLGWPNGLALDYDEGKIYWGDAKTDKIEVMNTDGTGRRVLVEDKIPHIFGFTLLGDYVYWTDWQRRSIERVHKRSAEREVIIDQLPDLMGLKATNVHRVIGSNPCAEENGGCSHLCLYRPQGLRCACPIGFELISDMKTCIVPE
Experimental: Peptide affinities were also determined by competition with phage displaying a binding peptide (competition phage ELISA). Serial dilutions of test peptide were mixed with an appropriate (non-saturating) concentration of phage before exposing the mixture to target and allowing it to reach equilibrium. After washing to remove unbound material, bound phage were detected by incubation with anti-M13 antibody-horseradish peroxidase (HRP) conjugate and exposure to a suitable colorometric HRP substrate.
FIG. 7B. These peptides include the “NXI” motif described above. Affinities of the peptides for LRP6 E1E2 were determined by competition phage ELISA (41). […] To understand the detailed interactions of the peptides with LRP6, we determined high-resolution co-crystal structures of the peptides bound to the LRP6 E1 β-propeller.

[2] = molecular target: T2, human LRP6 construct E1 (amino acids A20-D325) (human, UniProt O75581 20-325); test: legend of FIG. 22
T2 construct: range 20-325; In the Fab crystal E1 arose from E1E2 degraded beyond Arg 335; residues Ala20 to Lys324 were traced; also called LRP6 E1; E1 domain
T2 sequence (looked up): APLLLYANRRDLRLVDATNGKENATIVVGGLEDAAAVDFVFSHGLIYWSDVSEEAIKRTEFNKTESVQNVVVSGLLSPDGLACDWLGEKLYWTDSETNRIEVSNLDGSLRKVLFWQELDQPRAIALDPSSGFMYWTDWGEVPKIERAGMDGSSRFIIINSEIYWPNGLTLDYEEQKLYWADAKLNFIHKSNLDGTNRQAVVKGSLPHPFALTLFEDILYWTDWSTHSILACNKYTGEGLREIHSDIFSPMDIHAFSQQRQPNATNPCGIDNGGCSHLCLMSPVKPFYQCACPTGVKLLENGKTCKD
Experimental: (§1) Binding kinetics were measured by biolayer interferometry using an Octet Red instrument (ForteBio) as previously described (11). Streptavidin (SA) biosensors were loaded with biotinylated hLRP6 in 50 mMTris, pH 8, 300 mM NaCl, 5% (v/v) glycerol, and 0.05% (w/v) Triton X-100. The loaded biosensors were washed in the same buffer before carrying out association and dissociation measurements for the indicated times. The Kd of each interaction was determined using steady state-analysis through the Octet Red software v6.3. Each reported value represents an average of three or more experiments at different concentrations, with a fitted experimental curve for which the square of the correlation coefficient (R²) is above 0.96.

LRP6 = test: Competition binding between Dkk1 and other Wnt pathway inhibitors (preloaded Dkk1); parameters: species or system human; details: Dkk1 100 nM preloaded, test ligand 100 nM
Experimental: FIG. 8. Competition binding between Dkk1 and other Wnt pathway inhibitors. The indicated LRP6 construct was preloaded onto biosensor tips. Dkk1 (100 nM) (or buffer control) and the test ligand (100 nM) were loaded sequentially onto the LRP6 tips. (A) Dkk2 competition with Dkk1. (B) Sclerostin competition with Dkk1. Percent binding in the presence of Dkk1 is shown relative to buffer control.
as §1, with “(R^2)” for “(R²)”
To assess whether Dkk1, Dkk2, and sclerostin might bind to the same site on LRP6 E1, Dkk2 or sclerostin binding was measured in the presence of preloaded Dkk1 (100 nM). […]

LRP6 E2 = molecular target: T3, LRP6 E2 (Homo sapiens, UniProt O75581); test: Biolayer interferometry binding to LRP6 E2
T3 construct: construct E2-amino acids D235-E631 of LPR6; made in house; host or cells: Tni insect cells (baculovirus, secreted)
T3 sequence (O75581 325-631 limits assumed): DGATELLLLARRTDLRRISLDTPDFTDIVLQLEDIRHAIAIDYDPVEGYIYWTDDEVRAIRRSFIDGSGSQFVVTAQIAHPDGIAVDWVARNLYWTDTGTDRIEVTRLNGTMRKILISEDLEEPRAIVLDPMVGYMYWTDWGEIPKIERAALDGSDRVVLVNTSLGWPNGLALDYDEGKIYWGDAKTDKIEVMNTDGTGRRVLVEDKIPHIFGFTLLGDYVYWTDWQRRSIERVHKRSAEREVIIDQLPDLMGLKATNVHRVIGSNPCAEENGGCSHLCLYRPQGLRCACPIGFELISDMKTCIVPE
Experimental: as §1, with “(R^2)” for “(R²)”
(§2) The interaction of the different Dkks and sclerostin with various domains of LRP6 was measured using a biolayer interferometry assay (11). Purified receptors contained individual β-propeller-EGF-like units (E1, E2, or E4), two β-propellers (E1E2 or E3E4), or four β-propellers (E1E4))—as follows:
(§3) Human LRP6: construct E1E4-amino acids A20-Q1253 of LPR6; construct E1E2-amino acids A20-E631 of LPR6; construct E3E4 amino acids E631-Q1253 of LPR6; construct E1-amino acids A20-D325 of LPR6; construct E2-amino acids […]-E631 of LPR6; construct E4-T933-Q1253. The individual LRP6 β-propeller E3 could not be expressed.

LRP6 E3E4 = molecular target: T4, LRP6 E3E4 (Homo sapiens, UniProt O75581); test: Biolayer interferometry binding to LRP6 E3E4; details: steady state, read-out: affinity for LRP6 E3E4
T4 construct: construct E3E4 amino acids E631-Q1253 of LPR6; made in house; host or cells: Tni insect cells (baculovirus, secreted)
T4 sequence (O75581 631-1253): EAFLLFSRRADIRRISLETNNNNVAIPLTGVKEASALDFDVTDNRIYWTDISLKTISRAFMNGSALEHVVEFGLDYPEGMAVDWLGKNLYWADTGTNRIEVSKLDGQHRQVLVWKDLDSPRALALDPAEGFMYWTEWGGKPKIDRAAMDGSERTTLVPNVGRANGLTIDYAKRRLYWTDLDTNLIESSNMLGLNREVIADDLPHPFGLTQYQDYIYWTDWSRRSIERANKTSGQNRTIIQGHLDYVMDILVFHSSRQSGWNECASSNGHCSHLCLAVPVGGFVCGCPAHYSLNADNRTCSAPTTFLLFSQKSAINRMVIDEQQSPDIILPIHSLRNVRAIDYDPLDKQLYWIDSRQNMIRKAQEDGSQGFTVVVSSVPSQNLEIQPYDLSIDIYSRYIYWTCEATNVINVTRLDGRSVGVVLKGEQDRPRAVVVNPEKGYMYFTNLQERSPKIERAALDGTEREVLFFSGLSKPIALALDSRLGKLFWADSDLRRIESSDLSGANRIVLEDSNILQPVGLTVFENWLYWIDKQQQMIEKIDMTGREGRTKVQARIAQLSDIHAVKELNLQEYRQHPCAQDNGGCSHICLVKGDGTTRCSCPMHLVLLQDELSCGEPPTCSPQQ
Experimental: as §1, with “(R^2)” for “(R²)”
as §2, §3

LRP6 E4 = molecular target: T5, LRP6 E4 (Homo sapiens, UniProt O75581); test: Biolayer interferometry binding to LRP6 E4
T5 construct: construct E4-T933-Q1253; made in house; host or cells: Tni insect cells (baculovirus, secreted)
T5 sequence (O75581 933-1253): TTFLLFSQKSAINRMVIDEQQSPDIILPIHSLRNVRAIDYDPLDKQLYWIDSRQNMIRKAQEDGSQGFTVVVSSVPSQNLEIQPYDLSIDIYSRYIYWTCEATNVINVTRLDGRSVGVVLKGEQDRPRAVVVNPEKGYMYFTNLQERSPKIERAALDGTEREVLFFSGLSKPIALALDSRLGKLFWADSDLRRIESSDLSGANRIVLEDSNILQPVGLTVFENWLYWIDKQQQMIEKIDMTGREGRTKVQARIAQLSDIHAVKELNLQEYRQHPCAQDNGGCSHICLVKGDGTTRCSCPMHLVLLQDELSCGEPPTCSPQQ
Experimental: as §1, with “(R^2)” for “(R²)”
as §2, §3

LRP6 E1E2 = molecular target: T6, LRP6 E1E2 (Homo sapiens, UniProt O75581); test: Biolayer interferometry binding to LRP6 E1E2; details: steady state, read-out: affinity for LRP6 E1E2
T6 construct: construct E1E2-amino acids A20-E631 of LPR6; made in house; host or cells: Tni insect cells (baculovirus, secreted)
T6 sequence (O75581 20-631): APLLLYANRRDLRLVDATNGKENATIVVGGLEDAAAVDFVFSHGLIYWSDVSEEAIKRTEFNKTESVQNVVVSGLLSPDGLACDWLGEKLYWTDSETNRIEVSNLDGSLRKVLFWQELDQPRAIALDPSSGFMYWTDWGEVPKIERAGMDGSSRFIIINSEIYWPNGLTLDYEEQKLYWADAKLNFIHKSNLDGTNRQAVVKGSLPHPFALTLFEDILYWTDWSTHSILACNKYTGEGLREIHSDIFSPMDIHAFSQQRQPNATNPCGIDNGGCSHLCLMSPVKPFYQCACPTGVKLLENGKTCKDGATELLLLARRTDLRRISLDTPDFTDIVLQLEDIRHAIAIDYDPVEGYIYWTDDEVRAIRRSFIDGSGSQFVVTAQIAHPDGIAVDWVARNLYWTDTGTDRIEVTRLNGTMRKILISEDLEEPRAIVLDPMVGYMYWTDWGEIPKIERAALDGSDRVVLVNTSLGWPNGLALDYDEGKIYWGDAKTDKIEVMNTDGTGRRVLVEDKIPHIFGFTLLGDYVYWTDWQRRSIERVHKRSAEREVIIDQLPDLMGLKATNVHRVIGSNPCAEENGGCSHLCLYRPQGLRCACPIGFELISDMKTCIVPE
Experimental: as §1, with “(R^2)” for “(R²)”
as §2, §3

LRP6 E1 = molecular target: T7, LRP6 E1 (Homo sapiens, UniProt O75581); test: Biolayer interferometry binding to LRP6 E1
T7 construct: construct E1-amino acids A20-D325 of LPR6; made in house; host or cells: Tni insect cells (baculovirus, secreted)
T7 sequence (O75581 20-325): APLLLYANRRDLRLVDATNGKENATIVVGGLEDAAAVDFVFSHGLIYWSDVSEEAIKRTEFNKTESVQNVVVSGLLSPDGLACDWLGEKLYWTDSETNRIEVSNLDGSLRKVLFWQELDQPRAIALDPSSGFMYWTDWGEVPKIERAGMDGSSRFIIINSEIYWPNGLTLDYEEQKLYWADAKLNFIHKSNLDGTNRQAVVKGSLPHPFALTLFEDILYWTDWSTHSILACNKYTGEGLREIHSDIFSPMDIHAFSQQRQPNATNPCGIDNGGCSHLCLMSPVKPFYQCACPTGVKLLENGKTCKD
Experimental: as §1, with “(R^2)” for “(R²)”
as §2, §3

B1: Dkk1 7-mer peptide Ac-NSNAIKN-am (peptide)
peptide: Ac-NSNAIKN-NH2
notes: also called Dkk1 peptide
With B1 the IC50 [1] was 4000 nM.

B2: Ac-CNSIKFCG-am (disulfide) (peptide)
peptide: Ac-CNSIKFCG-NH2
modifications: disulfide 1-7 (inferred)
notes: also called Peptide B
B2: binds [2].

B3: Dkk2: Dickkopf 2, carrier-free protein from R&D Systems (protein, UniProt Q9UBU2 34-259, looked up)
Dickkopf-related protein 2: KLNSIKSSLGGETPGQAANRSAGMYQGLAFGGSKKGKNLGQAYPCSSDKECEVGRYCHSPHQGSSACMVCRRKKKRCHRDGMCCPSTRCNNGICIPVTESILTPHIPALDGTRHRDRNHGHYSNHDLGWQNLGRPHTKMSHIKGHEGDPCLRSSDCIEGFCCARHFWTKICKPVLHQGEVCTKQRKKGSHGLEIFQRCDCAKGLSCKVWKDATYSSKARLHVCQKI
For B3, the “binding to LRP6 in the presence of preloaded Dkk1” value (LRP6) was “inhibited only slightly”, the “binding to LRP6 E2 (in words)” value (LRP6 E2) was “Partial binding” and the Kd (LRP6 E3E4) was 38 nM. The “binding to LRP6 E4 (in words)” value (LRP6 E4) was “undetectable”, the Kd (LRP6 E1E2) was 53 nM and the “binding to LRP6 E1 (in words)” value (LRP6 E1) was “bind with high affinity”.
